Consider 28 molecules from PMC9352680, “A comprehensive thermodynamic model for RNA binding by the Saccharomyces cerevisiae Pumilio protein PUF4”.

This series deals with T1, PUF4 RNA-binding domain (Saccharomyces cerevisiae, UniProt P25339 537-888).
T1 sequence: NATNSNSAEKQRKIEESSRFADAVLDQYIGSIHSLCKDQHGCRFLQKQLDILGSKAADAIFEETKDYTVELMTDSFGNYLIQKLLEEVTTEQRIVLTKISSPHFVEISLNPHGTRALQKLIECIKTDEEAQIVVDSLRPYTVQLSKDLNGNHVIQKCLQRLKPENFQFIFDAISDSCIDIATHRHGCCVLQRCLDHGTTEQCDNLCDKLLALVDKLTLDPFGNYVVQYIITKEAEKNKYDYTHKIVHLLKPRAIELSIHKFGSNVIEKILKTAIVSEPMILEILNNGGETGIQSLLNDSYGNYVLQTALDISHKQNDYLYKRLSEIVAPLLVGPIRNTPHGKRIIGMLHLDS
The experiment in a line: Mg; RNA-MaP; 20 mM Na-HEPES pH 7.4, 30 mM KOAc, 0.75 mM MgCl2, 0.1% Tween-20, 5% glycerol, 0.1 mg/mL BSA, 2 mM DTT; 25 C; 0.0125-409.6 nM protein. Particulars: tags: N-His6-TEV cleaved; C-SNAP kept, Cy3B-labelled; label: tethered on chip by stalled RNA polymerase.

For the molecule ACAAACACACACUUAUUAUCACAAAC (ssRNA) [Id_ii_S3_P5E.4_K5.3_C5.2_[C-2A]_[T-1C]_H5.3_A5.1_F5.1_T5.2_[A12C]], the Kd (in general, a measure of binding affinity in units of concentration) was above 2300 nM.
As for ACAAACAAACACUUAUUACAACAAAC (ssRNA) [Id_ii_S3_P5E.4_K5.3_C5.2_[C-2A]_[T-1A]_H5.3_A5.1_F5.1_T5.2_[T11C]], the Kd is above 2300 nM.
ACAAACUCACACUUAUUAAAACAAAC (ssRNA) [Id_ii_S3_P5E.4_K5.3_C5.2_[C-2T]_[T-1C]_H5.3_A5.1_F5.1_T5.2_[T11A]] yielded a Kd above 2300 nM.
Molecule ACAAACAGACACUUAUUAUUACAAAC (ssRNA) [Id_ii_S3_P5E.4_K5.3_C5.2_[C-2A]_[T-1G]_H5.3_A5.1_F5.1_T5.2_[A12T]] gave an equilibrium dissociation constant (Kd) above 2300 nM.
In turn, ACAAACGAACACUUAUUAACACAAAC (ssRNA) [Id_ii_S3_P5E.4_K5.3_C5.2_[C-2G]_[T-1A]_H5.3_A5.1_F5.1_T5.2_[T11A]_[A12C]] yielded a Kd above 2300 nM.
As for ACAAACUGACACUUAUUAUAACAAAC (ssRNA) [Id_ii_S3_P5E.4_K5.3_C5.2_[C-2T]_[T-1G]_H5.3_A5.1_F5.1_T5.2], the Kd was above 2300 nM.
Molecule ACAAACGUACACUUAUUACCACAAAC (ssRNA) [Id_ii_S3_P5E.4_K5.3_C5.2_[C-2G]_H5.3_A5.1_F5.1_T5.2_[T11C]_[A12C]] came in with a Kd of 972 nM.
Then ACAAACCUUAUAUUAUUACGACAAAC (ssRNA) [Id_ii_S3_P5E.3_K5.2_C5.2_H5.2_A5.1_F5.1_T5.2_[T11C]_[A12G]], with 406 nM.
Take ACAAACGCACACUUAUUAGAACAAAC (ssRNA) [Id_ii_S3_P5E.4_K5.3_C5.2_[C-2G]_[T-1C]_H5.3_A5.1_F5.1_T5.2_[T11G]]: the dissociation constant Kd is above 2300 nM.
Then ACAAACGCACACUUAUUAUGACAAAC (ssRNA) [Id_ii_S3_P5E.4_K5.3_C5.2_[C-2G]_[T-1C]_H5.3_A5.1_F5.1_T5.2_[A12G]], with above 2300 nM.
In turn, ACAAACAAACACUUAUUACCACAAAC (ssRNA) [Id_ii_S3_P5E.4_K5.3_C5.2_[C-2A]_[T-1A]_H5.3_A5.1_F5.1_T5.2_[T11C]_[A12C]] returned a Kd above 2300 nM.
In the case of ACAAACUCACACUUAUUAGCACAAAC (ssRNA) [Id_ii_S3_P5E.4_K5.3_C5.2_[C-2T]_[T-1C]_H5.3_A5.1_F5.1_T5.2_[T11G]_[A12C]], the Kd was above 2300 nM.
Regarding ACAAACUUACACUUAUUAACACAAAC (ssRNA) [Id_ii_S3_P5E.4_K5.3_C5.2_[C-2T]_H5.3_A5.1_F5.1_T5.2_[T11A]_[A12C]], the Kd is above 2300 nM.
ACAAACCUUAUAUUAUUAAUACAAAC (ssRNA) [Id_ii_S3_P5E.3_K5.2_C5.2_H5.2_A5.1_F5.1_T5.2_[T11A]_[A12T]]: the dissociation constant Kd was 459 nM.
On to ACAAACGUACACUUAUUAUUACAAAC (ssRNA) [Id_ii_S3_P5E.4_K5.3_C5.2_[C-2G]_H5.3_A5.1_F5.1_T5.2_[A12T]], for which binding was put at a Kd of 702 nM.
ACAAACUUACACUUAUUACGACAAAC (ssRNA) [Id_ii_S3_P5E.4_K5.3_C5.2_[C-2T]_H5.3_A5.1_F5.1_T5.2_[T11C]_[A12G]] had a Kd above 2300 nM.
Molecule ACAAACUGACACUUAUUACCACAAAC (ssRNA) [Id_ii_S3_P5E.4_K5.3_C5.2_[C-2T]_[T-1G]_H5.3_A5.1_F5.1_T5.2_[T11C]_[A12C]] gave a Kd above 2300 nM.
ACAAACCAUAUAUUAUUAACACAAAC (ssRNA) [Id_ii_S3_P5E.3_K5.2_C5.2_[T-1A]_H5.2_A5.1_F5.1_T5.2_[T11A]_[A12C]] registered a Kd of 201 nM.
The molecule ACAAACAGACACUUAUUAUCACAAAC (ssRNA) [Id_ii_S3_P5E.4_K5.3_C5.2_[C-2A]_[T-1G]_H5.3_A5.1_F5.1_T5.2_[A12C]] had a Kd above 2300 nM.
Then ACAAACCAUAUAUUAUUAAAACAAAC (ssRNA) [Id_ii_S3_P5E.3_K5.2_C5.2_[T-1A]_H5.2_A5.1_F5.1_T5.2_[T11A]], with 631 nM; and UCUCUUUCUCUUAUUAUCUCUU (ssRNA) [Ib_S1_P5E.1_K5.1_C5.1_H5.1_[G2C]_[A4C]_A5.1_F5.1_T5.1], with above 2300 nM; and ACAAACACACACUUAUUAACACAAAC (ssRNA) [Id_ii_S3_P5E.4_K5.3_C5.2_[C-2A]_[T-1C]_H5.3_A5.1_F5.1_T5.2_[T11A]_[A12C]], with above 2300 nM.
For the molecule ACAAACUCACACUUAUUACGACAAAC (ssRNA) [Id_ii_S3_P5E.4_K5.3_C5.2_[C-2T]_[T-1C]_H5.3_A5.1_F5.1_T5.2_[T11C]_[A12G]], the Kd is above 2300 nM.
Under UCUCUUUAUGUUAUUAUCUCUU (ssRNA) [Ib_S1_P5E.1_K5.1_C5.1_H5.1_[G2A]_[A4G]_A5.1_F5.1_T5.1] stands 2070 nM; under ACAAACAAACACUUAUUAAGACAAAC (ssRNA) [Id_ii_S3_P5E.4_K5.3_C5.2_[C-2A]_[T-1A]_H5.3_A5.1_F5.1_T5.2_[T11A]_[A12G]], above 2300 nM.
The molecule ACAAACUUACACUUAUUAUCACAAAC (ssRNA) [Id_ii_S3_P5E.4_K5.3_C5.2_[C-2T]_H5.3_A5.1_F5.1_T5.2_[A12C]] had a Kd above 2300 nM.
The molecule ACAAACUAACACUUAUUACAACAAAC (ssRNA) [Id_ii_S3_P5E.4_K5.3_C5.2_[C-2T]_[T-1A]_H5.3_A5.1_F5.1_T5.2_[T11C]] gave a Kd above 2300 nM.
Then UCUCUUAGUGUUAUUAUCUCUU (ssRNA) [Ib_S1_P5E.1_K5.1_C5.1_H5.1_[T1A]_[A4G]_A5.1_F5.1_T5.1], with above 2300 nM.
